This note sets out measurements from patent US20140178353A1.

The target of the assay is Lon protease of E. coli (endogenous) (E. coli) (UniProt P0A9M0). Kind of assay: cell-based or functional assay.
Sequence of UniProt P0A9M0 (P0A9M0 2-784 limits assumed): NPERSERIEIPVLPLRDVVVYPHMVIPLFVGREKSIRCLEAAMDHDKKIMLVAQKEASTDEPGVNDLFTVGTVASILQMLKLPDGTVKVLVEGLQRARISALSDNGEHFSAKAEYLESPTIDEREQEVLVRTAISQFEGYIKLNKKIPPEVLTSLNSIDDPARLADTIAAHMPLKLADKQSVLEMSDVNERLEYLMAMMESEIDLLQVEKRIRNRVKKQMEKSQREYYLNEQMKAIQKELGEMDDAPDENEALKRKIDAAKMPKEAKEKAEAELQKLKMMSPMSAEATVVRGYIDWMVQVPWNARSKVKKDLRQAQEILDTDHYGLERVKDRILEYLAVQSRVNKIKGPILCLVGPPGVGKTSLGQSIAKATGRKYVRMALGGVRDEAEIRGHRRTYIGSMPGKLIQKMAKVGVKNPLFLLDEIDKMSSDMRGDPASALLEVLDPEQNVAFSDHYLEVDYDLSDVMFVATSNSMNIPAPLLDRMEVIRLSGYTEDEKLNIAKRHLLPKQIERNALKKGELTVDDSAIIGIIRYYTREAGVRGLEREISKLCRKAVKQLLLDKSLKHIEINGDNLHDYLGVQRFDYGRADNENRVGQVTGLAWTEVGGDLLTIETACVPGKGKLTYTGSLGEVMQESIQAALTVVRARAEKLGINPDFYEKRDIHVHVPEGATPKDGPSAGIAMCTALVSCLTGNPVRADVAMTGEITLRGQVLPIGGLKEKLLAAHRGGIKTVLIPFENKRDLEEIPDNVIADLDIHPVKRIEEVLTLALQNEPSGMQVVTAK

Regarding “T7 phage gene product (Gp) 4.5 expressed in E. coli from a plasmid (peptide)”, the fold decrease in persistence: fraction of surviving E. coli cells following 5 hr exposure to ampicillin is 5 fold.
